From patent EP4713370A2 (dated 2026) come the findings set out here.

Test [1] addresses T1, Recombinant human NKp46, His Tag (human NKp46 ECD antigen, aa. 22-254, his-tagged) (human, UniProt O76036 22-255).
T1 construct: also called NKp46 extracellular domain (ECD); Acrobiosystems #NC1-H52H4; not shown: His tag
Description: ELISA on coated NKp46-His, and BLI with antibody on anti-human IgG Fc probe and 11 nM NKp46-His.

The target of test [2] is T2, human NKp46 expressed on cells (primary human NK cells; CHOK1-hNKp46 cells) (human, UniProt O76036 22-304).
T2 construct: whole, on cells; also called cell surface expressed NKp46; NCR1
T2 sequence (O76036 22-304): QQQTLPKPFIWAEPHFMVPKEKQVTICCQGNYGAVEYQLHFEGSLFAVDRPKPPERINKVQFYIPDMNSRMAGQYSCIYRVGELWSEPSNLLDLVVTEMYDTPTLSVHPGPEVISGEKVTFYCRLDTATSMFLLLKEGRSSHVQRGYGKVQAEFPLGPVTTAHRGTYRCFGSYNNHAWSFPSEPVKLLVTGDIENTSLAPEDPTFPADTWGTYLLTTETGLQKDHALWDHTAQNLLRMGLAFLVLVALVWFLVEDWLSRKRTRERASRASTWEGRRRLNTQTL
Briefly: flow cytometry on primary human NK cells, rabbit IgG, anti-rabbit IgG FITC.

T1 sequence (O76036 other isoform, or with tags, fused parts or gaps): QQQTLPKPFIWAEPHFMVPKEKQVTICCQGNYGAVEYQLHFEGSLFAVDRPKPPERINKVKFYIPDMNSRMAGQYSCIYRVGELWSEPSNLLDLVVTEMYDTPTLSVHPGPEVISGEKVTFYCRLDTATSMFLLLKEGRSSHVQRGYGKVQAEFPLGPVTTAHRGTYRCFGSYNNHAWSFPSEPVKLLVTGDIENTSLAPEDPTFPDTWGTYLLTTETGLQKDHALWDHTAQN

B1: ch3-7 (antibody, human IgG1, kappa, V domains shown)
VH: QSLEESGGRLVTPGTPLTLTCTVSGFSPSSYYMSWVRQAPGKGLEYIGIIFSGGSTWYASWAKGRVTISRTSTTVDLKMTSLTTEDTATYFCARGDAVGSGYWGLWGPGTLVTVSS
VL: AFELTQTPSSVEAAVGGTVTINCQASQDIYIYLAWYQQKPGQPPKLLIYSASTLASGVSSRFTGSRSGTQFTLTISDLEPADAATYYCQSYDGTSNTGFGGGTEVVVRR
notes: Chimeric rabbit/human IgG1; also called chimeric anti-NKp46 antibody ch3-7
As to B1, in test [1], the binding result is “binds”.

B2: rabbit anti-NKp46 clone 3-7 (expressed and purified as rabbit IgG) (antibody, V domains shown)
VH: QSLEESGGRLVTPGTPLTLTCTVSGFSPSSYYMSWVRQAPGKGLEYIGIIFSGGSTWYASWAKGRVTISRTSTTVDLKMTSLTTEDTATYFCARGDAVGSGYWGLWGPGTLVTVSS
VL: AFELTQTPSSVEAAVGGTVTINCQASQDIYIYLAWYQQKPGQPPKLLIYSASTLASGVSSRFTGSRSGTQFTLTISDLEPADAATYYCQSYDGTSNTGFGGGTEVVVR
notes: Rabbit IgG
As for B2, the binding result in test [2] is reported as “binds”.

B3: ch5-13 (antibody, human IgG1, kappa, V domains shown)
VH: QSVEESGGRLVTPGTPLTLTCTVSGFSLSSYHMSWVRQAPGKGLEWIGYILANTDSYYANWAKGRFTISKTSTTVDLKITSPTTEDTATYFCARYDNHDAAYSTLWGPGTLVTVSS
VL: AYDMTQTPASVEVAVGGTVTIKCQASQSISTALAWYQQKPGQPPKLLIYKASTLASGVSSRFKGSGSGTQFTLTISGVEPADAATYYCQQGYSRSNVDNVFGGGTEVVVKR
notes: Chimeric rabbit/human IgG1; also called chimeric anti-NKp46 antibody ch5-13
B3: in test [1], the binding result was “binds”.

B4: rabbit anti-NKp46 clone 5-13 (expressed and purified as rabbit IgG) (antibody, V domains shown)
VH: QSVEESGGRLVTPGTPLTLTCTVSGFSLSSYHMSWVRQAPGKGLEWIGYILANTDSYYANWAKGRFTISKTSTTVDLKITSPTTEDTATYFCARYDNHDAAYSTLWGPGTLVTVSS
VL: AYDMTQTPASVEVAVGGTVTIKCQASQSISTALAWYQQKPGQPPKLLIYKASTLASGVSSRFKGSGSGTQFTLTISGVEPADAATYYCQQGYSRSNVDNVFGGGTEVVVK
notes: Rabbit IgG
As for B4, in test [2], the binding result is listed as “binds”.
